Publication PMC9242859

Target: C-terminally TAMRA-conjugated and N-terminally myristoylated preS1 peptide, amino acids 2-48 of the preS1 region (preS1 probe)
Assay: preS1 binding assay (fluorescent preS1 probe attachment to cells, fluorescence imaging)
Conditions: Huh7 cells transiently expressing wild-type or mutant NTCP; parent: est. 1.0; read off a plot

| Substance | ratio to parent (fold vs control) |
| --- | --- |
| wild-type NTCP transiently expressed in Huh7 cells (from UniProt Q14973) R84A; N87A | 0.46 |
| wild-type NTCP transiently expressed in Huh7 cells (from UniProt Q14973) R143A; D147A | 1.1 |
